According to article PMC9482650, “Quantitative fragmentomics allow affinity mapping of interactomes” (Nature Communications, 2022):

T1: ARHGAP21, Q5T5U3
T1 sequence (Q5T5U3 45-169, limits assumed, looked up): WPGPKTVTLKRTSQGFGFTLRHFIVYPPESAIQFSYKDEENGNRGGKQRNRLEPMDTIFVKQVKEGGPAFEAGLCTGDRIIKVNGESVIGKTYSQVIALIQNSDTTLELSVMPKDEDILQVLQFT

T2: DFNB31_2, Q9P202
T2 sequence (Q9P202 274-371, limits assumed, looked up): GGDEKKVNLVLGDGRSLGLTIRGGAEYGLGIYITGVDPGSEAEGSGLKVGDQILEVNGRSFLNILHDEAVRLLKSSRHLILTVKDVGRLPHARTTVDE

T3: DFNB31_3, Q9P202
T3 sequence (Q9P202 811-907, limits assumed, looked up): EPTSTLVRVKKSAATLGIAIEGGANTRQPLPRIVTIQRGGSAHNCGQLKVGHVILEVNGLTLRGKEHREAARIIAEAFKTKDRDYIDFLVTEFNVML

T4: DLG3_2, Q92796
T4 sequence (Q92796 221-321, limits assumed, looked up): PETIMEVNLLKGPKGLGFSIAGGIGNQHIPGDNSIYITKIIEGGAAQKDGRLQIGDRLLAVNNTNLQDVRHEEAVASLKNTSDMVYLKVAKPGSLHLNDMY

T5: GRIP1_4, Q9Y3R0
T5 sequence (Q9Y3R0 467-571, limits assumed, looked up): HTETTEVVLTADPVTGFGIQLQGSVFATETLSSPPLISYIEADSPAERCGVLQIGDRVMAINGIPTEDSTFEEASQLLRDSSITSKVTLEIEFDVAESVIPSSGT

T6: MPDZ_10, O75970
T6 sequence (O75970 1624-1722, limits assumed, looked up): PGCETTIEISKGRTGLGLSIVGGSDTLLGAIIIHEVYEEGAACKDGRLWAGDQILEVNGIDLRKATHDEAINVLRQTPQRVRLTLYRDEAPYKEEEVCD

T7: MPDZ_12, O75970
T7 sequence (O75970 1857-1958, limits assumed, looked up): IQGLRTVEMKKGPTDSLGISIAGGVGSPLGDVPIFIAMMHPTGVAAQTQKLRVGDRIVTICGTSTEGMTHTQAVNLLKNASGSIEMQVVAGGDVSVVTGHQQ

T8: MPDZ_5, O75970
T8 sequence (O75970 695-796, limits assumed, looked up): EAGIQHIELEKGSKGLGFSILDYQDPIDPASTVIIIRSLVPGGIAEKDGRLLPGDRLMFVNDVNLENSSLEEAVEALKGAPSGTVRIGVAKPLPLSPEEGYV

T9: MPP7, Q5T2T1
T9 sequence (Q5T2T1 134-230, limits assumed, looked up): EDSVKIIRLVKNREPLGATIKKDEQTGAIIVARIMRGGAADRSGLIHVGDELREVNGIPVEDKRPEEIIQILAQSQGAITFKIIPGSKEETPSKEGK

T10: PDZD2_2, O15018
T10 sequence (O15018 329-429, limits assumed, looked up): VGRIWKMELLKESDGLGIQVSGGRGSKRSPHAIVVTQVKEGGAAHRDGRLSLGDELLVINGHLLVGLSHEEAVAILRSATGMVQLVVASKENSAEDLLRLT

T11: PDZRN3_1, Q9UPQ7
T11 sequence (Q9UPQ7 244-349, limits assumed, looked up): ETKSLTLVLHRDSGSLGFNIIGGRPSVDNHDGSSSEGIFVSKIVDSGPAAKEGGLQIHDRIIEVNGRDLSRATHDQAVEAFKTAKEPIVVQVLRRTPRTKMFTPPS

T12: SNTA1, Q13424
T12 sequence (Q13424 82-180, limits assumed, looked up): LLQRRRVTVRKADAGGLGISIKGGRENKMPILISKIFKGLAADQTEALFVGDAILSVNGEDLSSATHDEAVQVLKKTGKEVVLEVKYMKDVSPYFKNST

T13: TX1BP3, O14907
T13 sequence (O14907 10-122, limits assumed, looked up): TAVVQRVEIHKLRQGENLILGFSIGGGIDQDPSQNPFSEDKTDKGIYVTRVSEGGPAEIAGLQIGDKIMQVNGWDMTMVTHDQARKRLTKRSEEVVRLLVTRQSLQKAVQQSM

B1: RPS6KA3, P51812 (peptide)
chain: GIKKITSTAL
B2: CIB2, O75838 (peptide)
chain: DFLSTFHIRI
B3: MTNR1A, P48039 (peptide)
chain: NNNVVKVDSV

The binders below were run against T1, ARHGAP21, Q5T5U3 (assay: holdup assay). Conditions: plain residues with an end cap or a label only (N-terminal biotin on a linker: ado-ado).
Parameters: key: below the threshold = too weak to quantify, mostly under pKd 3.1 to 4

| pKd | Binder |
| --- | --- |
| 3.93 | B1 |
| 4.13 | B2 |
| below the threshold | B3 |

Each binder was assayed against T2, DFNB31_2, Q9P202 (assay: holdup assay). Conditions: plain residues with an end cap or a label only (N-terminal biotin on a linker: ado-ado).
Parameters: key: below the threshold = too weak to quantify, mostly under pKd 3.1 to 4

| pKd | Binder |
| --- | --- |
| below the threshold | B1 |
| below the threshold | B2 |
| below the threshold | B3 |

What follows are binders tested against T3, DFNB31_3, Q9P202 (assay: holdup assay). Conditions: plain residues with an end cap or a label only (N-terminal biotin on a linker: ado-ado).
Parameters: key: below the threshold = too weak to quantify, mostly under pKd 3.1 to 4

| pKd | Binder |
| --- | --- |
| 4.23 | B1 |
| 3.5 | B2 |
| 3.93 | B3 |

Each binder was assayed against T4, DLG3_2, Q92796 (assay: holdup assay). Conditions: plain residues with an end cap or a label only (N-terminal biotin on a linker: ado-ado).
Parameters: key: below the threshold = too weak to quantify, mostly under pKd 3.1 to 4

| pKd | Binder |
| --- | --- |
| 3.73 | B1 |
| 3.97 | B2 |
| 4.03 | B3 |

Each binder was assayed against FRMPD3, Q5JV73 (assay: holdup assay). Conditions: plain residues with an end cap or a label only (N-terminal biotin on a linker: ado-ado).
Parameters: key: below the threshold = too weak to quantify, mostly under pKd 3.1 to 4

FRMPD3, Q5JV73, sequence (Q5JV73 12-100): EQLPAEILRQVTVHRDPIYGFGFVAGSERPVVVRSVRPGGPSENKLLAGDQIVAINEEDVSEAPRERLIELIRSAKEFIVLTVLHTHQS

| pKd | Binder |
| --- | --- |
| below the threshold | B1 |
| below the threshold | B2 |
| below the threshold | B3 |

What follows are binders tested against T5, GRIP1_4, Q9Y3R0 (assay: holdup assay). Conditions: plain residues with an end cap or a label only (N-terminal biotin on a linker: ado-ado).
Parameters: key: below the threshold = too weak to quantify, mostly under pKd 3.1 to 4

| pKd | Binder |
| --- | --- |
| 3.62 | B1 |
| 3.9 | B2 |
| below the threshold | B3 |

The binders below were run against GRIP2_6, Q9C0E4 (assay: holdup assay). Conditions: plain residues with an end cap or a label only (N-terminal biotin on a linker: ado-ado).
Parameters: key: below the threshold = too weak to quantify, mostly under pKd 3.1 to 4

GRIP2_6, Q9C0E4, sequence (Q9C0E4 648-740): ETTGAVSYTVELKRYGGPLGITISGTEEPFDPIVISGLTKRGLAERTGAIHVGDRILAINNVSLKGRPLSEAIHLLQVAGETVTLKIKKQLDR

| pKd | Binder |
| --- | --- |
| 3.88 | B1 |
| 4.58 | B2 |
| below the threshold | B3 |

The binders below were run against HTRA1, Q92743 (assay: holdup assay). Conditions: plain residues with an end cap or a label only (N-terminal biotin on a linker: ado-ado).
Parameters: key: below the threshold = too weak to quantify, mostly under pKd 3.1 to 4

HTRA1, Q92743, sequence (Q92743 360-477): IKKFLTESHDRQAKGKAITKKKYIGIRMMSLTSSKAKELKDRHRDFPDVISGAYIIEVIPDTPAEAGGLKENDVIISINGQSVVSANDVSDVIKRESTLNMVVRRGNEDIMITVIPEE

| pKd | Binder |
| --- | --- |
| 3.58 | B1 |
| 4.15 | B2 |
| below the threshold | B3 |

Each binder was assayed against IL16_1, Q14005 (assay: holdup assay). Conditions: plain residues with an end cap or a label only (N-terminal biotin on a linker: ado-ado).
Parameters: key: below the threshold = too weak to quantify, mostly under pKd 3.1 to 4

IL16_1, Q14005, sequence (Q14005 210-306): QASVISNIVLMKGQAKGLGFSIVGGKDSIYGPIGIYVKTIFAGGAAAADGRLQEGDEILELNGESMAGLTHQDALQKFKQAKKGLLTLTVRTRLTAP

| pKd | Binder |
| --- | --- |
| 3.5 | B1 |
| below the threshold | B2 |
| below the threshold | B3 |

Each binder was assayed against Inadl_3, Q8NI35 (assay: holdup assay). Conditions: plain residues with an end cap or a label only (N-terminal biotin on a linker: ado-ado).
Parameters: key: below the threshold = too weak to quantify, mostly under pKd 3.1 to 4

Inadl_3, Q8NI35, sequence (Q8NI35 359-469): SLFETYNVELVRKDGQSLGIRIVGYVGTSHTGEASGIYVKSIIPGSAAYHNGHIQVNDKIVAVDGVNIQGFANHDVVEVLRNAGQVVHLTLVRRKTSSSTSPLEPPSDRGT

| pKd | Binder |
| --- | --- |
| below the threshold | B1 |
| 4.49 | B2 |
| below the threshold | B3 |

Each binder was assayed against Inadl_4, Q8NI35 (assay: holdup assay). Conditions: plain residues with an end cap or a label only (N-terminal biotin on a linker: ado-ado).
Parameters: key: below the threshold = too weak to quantify, mostly under pKd 3.1 to 4

Inadl_4, Q8NI35, sequence (Q8NI35 547-651): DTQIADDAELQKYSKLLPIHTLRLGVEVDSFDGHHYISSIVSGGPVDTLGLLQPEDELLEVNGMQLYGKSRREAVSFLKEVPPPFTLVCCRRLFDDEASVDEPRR

| pKd | Binder |
| --- | --- |
| below the threshold | B1 |
| below the threshold | B2 |
| below the threshold | B3 |

These binders were tested against LIMK2, P53671 (assay: holdup assay). Conditions: plain residues with an end cap or a label only (N-terminal biotin on a linker: ado-ado).
Parameters: key: below the threshold = too weak to quantify, mostly under pKd 3.1 to 4

LIMK2, P53671, sequence (P53671 143-248): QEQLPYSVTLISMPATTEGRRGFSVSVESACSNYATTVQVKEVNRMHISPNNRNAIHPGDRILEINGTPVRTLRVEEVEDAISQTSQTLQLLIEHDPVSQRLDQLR

| pKd | Binder |
| --- | --- |
| below the threshold | B1 |
| below the threshold | B2 |
| below the threshold | B3 |

These binders were tested against MAGI2_2, Q86UL8 (assay: holdup assay). Conditions: plain residues with an end cap or a label only (N-terminal biotin on a linker: ado-ado).
Parameters: key: below the threshold = too weak to quantify, mostly under pKd 3.1 to 4

MAGI2_2, Q86UL8, sequence (Q86UL8 410-522): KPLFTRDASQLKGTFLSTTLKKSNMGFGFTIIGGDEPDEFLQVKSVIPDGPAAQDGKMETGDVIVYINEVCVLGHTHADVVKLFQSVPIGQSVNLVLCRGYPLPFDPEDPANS

| pKd | Binder |
| --- | --- |
| 4.16 | B1 |
| below the threshold | B2 |
| below the threshold | B3 |

The binders below were run against MAGI3_2, Q5TCQ9 (assay: holdup assay). Conditions: plain residues with an end cap or a label only (N-terminal biotin on a linker: ado-ado).
Parameters: key: below the threshold = too weak to quantify, mostly under pKd 3.1 to 4

MAGI3_2, Q5TCQ9, sequence (Q5TCQ9 398-503): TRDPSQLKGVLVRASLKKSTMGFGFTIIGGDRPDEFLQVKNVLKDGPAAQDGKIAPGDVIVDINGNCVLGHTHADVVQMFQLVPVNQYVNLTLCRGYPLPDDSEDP

| pKd | Binder |
| --- | --- |
| 4.08 | B1 |
| 4.3 | B2 |
| below the threshold | B3 |

What follows are binders tested against T6, MPDZ_10, O75970 (assay: holdup assay). Conditions: plain residues with an end cap or a label only (N-terminal biotin on a linker: ado-ado).
Parameters: key: below the threshold = too weak to quantify, mostly under pKd 3.1 to 4

| pKd | Binder |
| --- | --- |
| 3.59 | B1 |
| below the threshold | B2 |
| 3.68 | B3 |

The binders below were run against T7, MPDZ_12, O75970 (assay: holdup assay). Conditions: plain residues with an end cap or a label only (N-terminal biotin on a linker: ado-ado).
Parameters: key: below the threshold = too weak to quantify, mostly under pKd 3.1 to 4

| pKd | Binder |
| --- | --- |
| below the threshold | B1 |
| below the threshold | B2 |
| below the threshold | B3 |

What follows are binders tested against T8, MPDZ_5, O75970 (assay: holdup assay). Conditions: plain residues with an end cap or a label only (N-terminal biotin on a linker: ado-ado).
Parameters: key: below the threshold = too weak to quantify, mostly under pKd 3.1 to 4

| pKd | Binder |
| --- | --- |
| below the threshold | B1 |
| below the threshold | B2 |
| below the threshold | B3 |

These binders were tested against T9, MPP7, Q5T2T1 (assay: holdup assay). Conditions: plain residues with an end cap or a label only (N-terminal biotin on a linker: ado-ado).
Parameters: key: below the threshold = too weak to quantify, mostly under pKd 3.1 to 4

| pKd | Binder |
| --- | --- |
| below the threshold | B1 |
| 4.46 | B2 |
| below the threshold | B3 |

These binders were tested against PDLIM1, O00151 (assay: holdup assay). Conditions: plain residues with an end cap or a label only (N-terminal biotin on a linker: ado-ado).
Parameters: key: below the threshold = too weak to quantify, mostly under pKd 3.1 to 4

PDLIM1, O00151, sequence (O00151 1-87): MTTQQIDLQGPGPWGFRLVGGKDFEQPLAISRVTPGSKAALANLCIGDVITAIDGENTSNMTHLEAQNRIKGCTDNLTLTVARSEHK

| pKd | Binder |
| --- | --- |
| 3.48 | B1 |
| below the threshold | B2 |
| below the threshold | B3 |

What follows are binders tested against T10, PDZD2_2, O15018 (assay: holdup assay). Conditions: plain residues with an end cap or a label only (N-terminal biotin on a linker: ado-ado).
Parameters: key: below the threshold = too weak to quantify, mostly under pKd 3.1 to 4

| pKd | Binder |
| --- | --- |
| 3.57 | B1 |
| 3.71 | B2 |
| 3.98 | B3 |

Each binder was assayed against T11, PDZRN3_1, Q9UPQ7 (assay: holdup assay). Conditions: plain residues with an end cap or a label only (N-terminal biotin on a linker: ado-ado).
Parameters: key: below the threshold = too weak to quantify, mostly under pKd 3.1 to 4

| pKd | Binder |
| --- | --- |
| 4.36 | B1 |
| below the threshold | B2 |
| below the threshold | B3 |

Each binder was assayed against T12, SNTA1, Q13424 (assay: holdup assay). Conditions: plain residues with an end cap or a label only (N-terminal biotin on a linker: ado-ado).
Parameters: key: below the threshold = too weak to quantify, mostly under pKd 3.1 to 4

| pKd | Binder |
| --- | --- |
| 3.94 | B1 |
| below the threshold | B2 |
| below the threshold | B3 |

The binders below were run against TJP1_2, Q07157 (assay: holdup assay). Conditions: plain residues with an end cap or a label only (N-terminal biotin on a linker: ado-ado).
Parameters: key: below the threshold = too weak to quantify, mostly under pKd 3.1 to 4

TJP1_2, Q07157, sequence (Q07157 181-274): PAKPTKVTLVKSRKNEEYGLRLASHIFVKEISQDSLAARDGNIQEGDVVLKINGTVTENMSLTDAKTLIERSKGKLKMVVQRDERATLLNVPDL

| pKd | Binder |
| --- | --- |
| below the threshold | B1 |
| below the threshold | B2 |
| below the threshold | B3 |

Each binder was assayed against T13, TX1BP3, O14907 (assay: holdup assay). Conditions: plain residues with an end cap or a label only (N-terminal biotin on a linker: ado-ado).
Parameters: key: below the threshold = too weak to quantify, mostly under pKd 3.1 to 4

| pKd | Binder |
| --- | --- |
| 4.59 | B1 |
| below the threshold | B2 |
| below the threshold | B3 |
